Columns and labels:
[1] = Activity screening of GOOX variants and glucose oxidase on MeGlcA; format: biochemical; settings: for nmol oxidized MeGlcA Mean: enzyme 16 nM, 37° C., 1 mM MeGlcA (FIG. 11 legend; b102 says 10 mM), 100 mM Tris pH 8.0 (GOOX variants) or 50 mM sodium acetate pH 5.0 (GO)
Procedure: (§1) FIG. 11: Activity screening of GOOX variants and glucose oxidase (GO) on GlcA and MeGlcA substrates. The enzymes (16 nM) were assayed at 37° C. with 10 mM GlcA and 1 mM MeGlcA in 100 mM Tris buffer pH 8.0 (for GOOX variants) or 50 mM sodium acetate pH 5.0 (for GO). The dotted line indicates the activity of GOOX-VN for MeGlcA for ease of comparison. “CtCBM22A-wtGOOX” and “CtCBM22A-Y300A” represent fusion proteins where the C terminus of the xylan-binding protein CtCBM22A (described in Vuong and Master, 2014) is fused to the N terminus GOOX.
(§2) The specific activity of GOOX-Y300A (16 nM) on MeGlcA and GlcA (1 mM) was measured in 50 mM Tris buffer pH 8.0 at 40° C. The amount of methyl glucaric acid was determined by measuring the release of H2O2 using a previously published colorimetric assay (Lin et al., 1991). The kinetics of GOOX-Y300A on these acidic sugars were measured at the same condition, but using up to 60 mM MeGlcA and GlcA and in 0.3 M Tris buffer pH 8.0.

[2] = Activity screening of GOOX variants and glucose oxidase on GlcA; format: biochemical; settings: for nmol oxidized GlcA Mean: enzyme 16 nM, 37° C., 10 mM GlcA (FIG. 11 legend; b102 says 100 mM), 100 mM Tris pH 8.0 (GOOX variants) or 50 mM sodium acetate pH 5.0 (GO); for activity with GlcA as substrate (in words): screening, compared with wtGOOX
Procedure: as §1, §2

Molecule	nmol oxidized MeGlcA Mean [1] [nmol]	activity with MeGlcA as substrate (in words) ([1]; screening, compared with wtGOOX)	nmol oxidized GlcA Mean [2] [nmol]	activity with GlcA as substrate (in words) [2]
N388S: GOOX variant with N388S relative to SEQ ID NO: 1 (protein, listed as Sarocladium strictum, (1)..(206) FAD-binding domain; (207)..(474) substrate-binding domain) NSINACLAAADVEFHEEDSEGWEMDGTAFNLRVDYDPVAIAIPRSTEDIAAAVQCGLDAGVQISAKGGGHSYGSYGFGGEDGHLMLELDRMYRVSVDDDNVATIQGGARLGYTALELLDQGNRALTHGTCPAVGIGGHVLGGGYGFATHTHGLTLDWLVGATVVLADASIVHVSKTENADLFWALRGGGGGFAIVSEFEFNTFEAPEIITTYQVTTTWNRKQHVAGLKALQDWAENTMPRELSMRLEINANALNWEGNYFGNAKDLKKVLQPIMKKAGGKSTISKLVETDWYGQINTYLYGADLNITYNYDVHEYFYANSLTAPRLSDEAISAFVDYKFDNSSVRPGRGWWIQWDFHGGKNSALASHSNDETAYAHRDQLWLWQFYDSIYDYENNTSPYPESGFEFMQGFVATIEDTLPEDRKGKYFNYADTTLDKEEAQKLYWRGNLEKLQAIKAKYDPEDVFGNVVSVEPIA	1.4023	improved activity over wtGOOX	-0.02652	improved activity over wtGOOX
Q353A: GOOX variant with Q353A relative to SEQ ID NO: 1 (protein, listed as Sarocladium strictum, (1)..(206) FAD-binding domain; (207)..(474) substrate-binding domain) NSINACLAAADVEFHEEDSEGWEMDGTAFNLRVDYDPVAIAIPRSTEDIAAAVQCGLDAGVQISAKGGGHSYGSYGFGGEDGHLMLELDRMYRVSVDDDNVATIQGGARLGYTALELLDQGNRALTHGTCPAVGIGGHVLGGGYGFATHTHGLTLDWLVGATVVLADASIVHVSKTENADLFWALRGGGGGFAIVSEFEFNTFEAPEIITTYQVTTTWNRKQHVAGLKALQDWAENTMPRELSMRLEINANALNWEGNYFGNAKDLKKVLQPIMKKAGGKSTISKLVETDWYGQINTYLYGADLNITYNYDVHEYFYANSLTAPRLSDEAISAFVDYKFDNSSVRPGRGWWIAWDFHGGKNSALASHSNDETAYAHRDQLWLWQFYDNIYDYENNTSPYPESGFEFMQGFVATIEDTLPEDRKGKYFNYADTTLDKEEAQKLYWRGNLEKLQAIKAKYDPEDVFGNVVSVEPIA	0.594		0.05212	improved activity over wtGOOX
Q353N: GOOX variant with Q353N relative to SEQ ID NO: 1 (protein, listed as Sarocladium strictum, (1)..(206) FAD-binding domain; (207)..(474) substrate-binding domain) NSINACLAAADVEFHEEDSEGWEMDGTAFNLRVDYDPVAIAIPRSTEDIAAAVQCGLDAGVQISAKGGGHSYGSYGFGGEDGHLMLELDRMYRVSVDDDNVATIQGGARLGYTALELLDQGNRALTHGTCPAVGIGGHVLGGGYGFATHTHGLTLDWLVGATVVLADASIVHVSKTENADLFWALRGGGGGFAIVSEFEFNTFEAPEIITTYQVTTTWNRKQHVAGLKALQDWAENTMPRELSMRLEINANALNWEGNYFGNAKDLKKVLQPIMKKAGGKSTISKLVETDWYGQINTYLYGADLNITYNYDVHEYFYANSLTAPRLSDEAISAFVDYKFDNSSVRPGRGWWINWDFHGGKNSALASHSNDETAYAHRDQLWLWQFYDNIYDYENNTSPYPESGFEFMQGFVATIEDTLPEDRKGKYFNYADTTLDKEEAQKLYWRGNLEKLQAIKAKYDPEDVFGNVVSVEPIA	0.4522		0.09327	improved activity over wtGOOX
E314A: GOOX variant with E314A relative to SEQ ID NO: 1 (protein, listed as Sarocladium strictum, (1)..(206) FAD-binding domain; (207)..(474) substrate-binding domain) NSINACLAAADVEFHEEDSEGWEMDGTAFNLRVDYDPVAIAIPRSTEDIAAAVQCGLDAGVQISAKGGGHSYGSYGFGGEDGHLMLELDRMYRVSVDDDNVATIQGGARLGYTALELLDQGNRALTHGTCPAVGIGGHVLGGGYGFATHTHGLTLDWLVGATVVLADASIVHVSKTENADLFWALRGGGGGFAIVSEFEFNTFEAPEIITTYQVTTTWNRKQHVAGLKALQDWAENTMPRELSMRLEINANALNWEGNYFGNAKDLKKVLQPIMKKAGGKSTISKLVETDWYGQINTYLYGADLNITYNYDVHAYFYANSLTAPRLSDEAISAFVDYKFDNSSVRPGRGWWIQWDFHGGKNSALASHSNDETAYAHRDQLWLWQFYDNIYDYENNTSPYPESGFEFMQGFVATIEDTLPEDRKGKYFNYADTTLDKEEAQKLYWRGNLEKLQAIKAKYDPEDVFGNVVSVEPIA	1.0403		-0.03292	
Y72F: GOOX variant with Y72F relative to SEQ ID NO: 1 (protein, listed as Sarocladium strictum, (1)..(206) FAD-binding domain; (207)..(474) substrate-binding domain) NSINACLAAADVEFHEEDSEGWEMDGTAFNLRVDYDPVAIAIPRSTEDIAAAVQCGLDAGVQISAKGGGHSFGSYGFGGEDGHLMLELDRMYRVSVDDDNVATIQGGARLGYTALELLDQGNRALTHGTCPAVGIGGHVLGGGYGFATHTHGLTLDWLVGATVVLADASIVHVSKTENADLFWALRGGGGGFAIVSEFEFNTFEAPEIITTYQVTTTWNRKQHVAGLKALQDWAENTMPRELSMRLEINANALNWEGNYFGNAKDLKKVLQPIMKKAGGKSTISKLVETDWYGQINTYLYGADLNITYNYDVHEYFYANSLTAPRLSDEAISAFVDYKFDNSSVRPGRGWWIQWDFHGGKNSALASHSNDETAYAHRDQLWLWQFYDNIYDYENNTSPYPESGFEFMQGFVATIEDTLPEDRKGKYFNYADTTLDKEEAQKLYWRGNLEKLQAIKAKYDPEDVFGNVVSVEPIA	0.6279		0.05395	improved activity over wtGOOX

Continued, values first:

nmol oxidized MeGlcA Mean [1] [nmol]	activity with MeGlcA as substrate (in words) ([1]; screening, compared with wtGOOX)	nmol oxidized GlcA Mean [2] [nmol]	activity with GlcA as substrate (in words) [2]	Molecule
0.724		0.05669	improved activity over wtGOOX	E247A: GOOX variant with E247A relative to SEQ ID NO: 1 (protein, listed as Sarocladium strictum, (1)..(206) FAD-binding domain; (207)..(474) substrate-binding domain) NSINACLAAADVEFHEEDSEGWEMDGTAFNLRVDYDPVAIAIPRSTEDIAAAVQCGLDAGVQISAKGGGHSYGSYGFGGEDGHLMLELDRMYRVSVDDDNVATIQGGARLGYTALELLDQGNRALTHGTCPAVGIGGHVLGGGYGFATHTHGLTLDWLVGATVVLADASIVHVSKTENADLFWALRGGGGGFAIVSEFEFNTFEAPEIITTYQVTTTWNRKQHVAGLKALQDWAENTMPRELSMRLAINANALNWEGNYFGNAKDLKKVLQPIMKKAGGKSTISKLVETDWYGQINTYLYGADLNITYNYDVHEYFYANSLTAPRLSDEAISAFVDYKFDNSSVRPGRGWWIQWDFHGGKNSALASHSNDETAYAHRDQLWLWQFYDNIYDYENNTSPYPESGFEFMQGFVATIEDTLPEDRKGKYFNYADTTLDKEEAQKLYWRGNLEKLQAIKAKYDPEDVFGNVVSVEPIA
0.7166		0.06492	improved activity over wtGOOX	W351A: GOOX variant with W351A relative to SEQ ID NO: 1 (protein, listed as Sarocladium strictum, (1)..(206) FAD-binding domain; (207)..(474) substrate-binding domain) NSINACLAAADVEFHEEDSEGWEMDGTAFNLRVDYDPVAIAIPRSTEDIAAAVQCGLDAGVQISAKGGGHSYGSYGFGGEDGHLMLELDRMYRVSVDDDNVATIQGGARLGYTALELLDQGNRALTHGTCPAVGIGGHVLGGGYGFATHTHGLTLDWLVGATVVLADASIVHVSKTENADLFWALRGGGGGFAIVSEFEFNTFEAPEIITTYQVTTTWNRKQHVAGLKALQDWAENTMPRELSMRLEINANALNWEGNYFGNAKDLKKVLQPIMKKAGGKSTISKLVETDWYGQINTYLYGADLNITYNYDVHEYFYANSLTAPRLSDEAISAFVDYKFDNSSVRPGRGWAIQWDFHGGKNSALASHSNDETAYAHRDQLWLWQFYDNIYDYENNTSPYPESGFEFMQGFVATIEDTLPEDRKGKYFNYADTTLDKEEAQKLYWRGNLEKLQAIKAKYDPEDVFGNVVSVEPIA
0.08201		-0.03749		Y300N: GOOX variant with Y300N relative to SEQ ID NO: 1 (protein, listed as Sarocladium strictum, (1)..(206) FAD-binding domain; (207)..(474) substrate-binding domain) NSINACLAAADVEFHEEDSEGWEMDGTAFNLRVDYDPVAIAIPRSTEDIAAAVQCGLDAGVQISAKGGGHSYGSYGFGGEDGHLMLELDRMYRVSVDDDNVATIQGGARLGYTALELLDQGNRALTHGTCPAVGIGGHVLGGGYGFATHTHGLTLDWLVGATVVLADASIVHVSKTENADLFWALRGGGGGFAIVSEFEFNTFEAPEIITTYQVTTTWNRKQHVAGLKALQDWAENTMPRELSMRLEINANALNWEGNYFGNAKDLKKVLQPIMKKAGGKSTISKLVETDWYGQINTYLNGADLNITYNYDVHEYFYANSLTAPRLSDEAISAFVDYKFDNSSVRPGRGWWIQWDFHGGKNSALASHSNDETAYAHRDQLWLWQFYDNIYDYENNTSPYPESGFEFMQGFVATIEDTLPEDRKGKYFNYADTTLDKEEAQKLYWRGNLEKLQAIKAKYDPEDVFGNVVSVEPIA

— patent publication US12668821B2, “Enzymatic production of glucaric acid from glucuronic acid” (THE GOVERNING COUNCIL OF THE UNIVERSITY OF TORONTO, priority 2019, dated 2026)
